Source: patent publication US20260209316A1 (US Dept. of Health and Human Services, published 2026)

Tests used:
[1] = biological target: T1, full-length Zaire GP (GPFL) (Ebola (Zaire) virus (EBOV), UniProt Q05320 33-632); test: ELISA on coated GP
T1 construct: also called Zaire GPFL; GP(Z)FL
T1 sequence: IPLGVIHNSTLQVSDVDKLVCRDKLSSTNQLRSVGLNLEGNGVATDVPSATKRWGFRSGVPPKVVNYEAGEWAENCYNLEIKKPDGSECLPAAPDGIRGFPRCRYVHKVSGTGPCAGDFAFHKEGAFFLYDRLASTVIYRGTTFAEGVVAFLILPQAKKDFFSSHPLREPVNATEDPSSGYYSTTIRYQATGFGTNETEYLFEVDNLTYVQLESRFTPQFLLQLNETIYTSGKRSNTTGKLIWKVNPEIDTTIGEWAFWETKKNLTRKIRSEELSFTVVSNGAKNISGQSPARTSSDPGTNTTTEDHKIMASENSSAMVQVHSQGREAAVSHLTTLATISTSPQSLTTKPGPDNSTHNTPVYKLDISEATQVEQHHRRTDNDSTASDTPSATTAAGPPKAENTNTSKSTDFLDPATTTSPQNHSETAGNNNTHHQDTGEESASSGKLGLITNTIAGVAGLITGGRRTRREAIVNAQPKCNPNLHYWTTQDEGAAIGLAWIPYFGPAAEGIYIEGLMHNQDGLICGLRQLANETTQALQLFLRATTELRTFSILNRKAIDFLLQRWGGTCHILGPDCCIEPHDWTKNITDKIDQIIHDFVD

[2] = biological target: T2, full-length Sudan GP (GPFL) (Sudan virus (SUDV), UniProt Q7T9D9 33-650); test: ELISA on coated GP
T2 construct: also called Sudan GPFL; GP(S)FL
T2 sequence: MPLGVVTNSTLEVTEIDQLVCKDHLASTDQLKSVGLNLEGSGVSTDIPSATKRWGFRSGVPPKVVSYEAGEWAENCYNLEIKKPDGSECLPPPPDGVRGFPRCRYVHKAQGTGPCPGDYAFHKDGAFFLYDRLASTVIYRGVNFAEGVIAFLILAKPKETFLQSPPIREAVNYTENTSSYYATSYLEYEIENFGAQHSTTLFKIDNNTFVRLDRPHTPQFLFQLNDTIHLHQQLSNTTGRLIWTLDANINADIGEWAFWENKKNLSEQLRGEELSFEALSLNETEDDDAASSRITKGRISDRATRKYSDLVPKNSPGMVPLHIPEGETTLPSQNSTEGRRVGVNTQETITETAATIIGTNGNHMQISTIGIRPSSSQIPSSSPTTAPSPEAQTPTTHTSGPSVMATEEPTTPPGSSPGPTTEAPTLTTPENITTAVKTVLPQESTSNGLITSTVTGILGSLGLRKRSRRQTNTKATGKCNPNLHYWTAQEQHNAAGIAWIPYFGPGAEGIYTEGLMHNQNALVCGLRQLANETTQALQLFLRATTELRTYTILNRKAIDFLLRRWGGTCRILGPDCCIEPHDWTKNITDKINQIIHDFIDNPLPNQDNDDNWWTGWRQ

[3] = biological target: T3, EBOV GP on pseudotyped lentiviral vector (Ebola (Zaire) virus (EBOV), UniProt Q05320 33-676); test: cell-based or functional assay
T3 sequence: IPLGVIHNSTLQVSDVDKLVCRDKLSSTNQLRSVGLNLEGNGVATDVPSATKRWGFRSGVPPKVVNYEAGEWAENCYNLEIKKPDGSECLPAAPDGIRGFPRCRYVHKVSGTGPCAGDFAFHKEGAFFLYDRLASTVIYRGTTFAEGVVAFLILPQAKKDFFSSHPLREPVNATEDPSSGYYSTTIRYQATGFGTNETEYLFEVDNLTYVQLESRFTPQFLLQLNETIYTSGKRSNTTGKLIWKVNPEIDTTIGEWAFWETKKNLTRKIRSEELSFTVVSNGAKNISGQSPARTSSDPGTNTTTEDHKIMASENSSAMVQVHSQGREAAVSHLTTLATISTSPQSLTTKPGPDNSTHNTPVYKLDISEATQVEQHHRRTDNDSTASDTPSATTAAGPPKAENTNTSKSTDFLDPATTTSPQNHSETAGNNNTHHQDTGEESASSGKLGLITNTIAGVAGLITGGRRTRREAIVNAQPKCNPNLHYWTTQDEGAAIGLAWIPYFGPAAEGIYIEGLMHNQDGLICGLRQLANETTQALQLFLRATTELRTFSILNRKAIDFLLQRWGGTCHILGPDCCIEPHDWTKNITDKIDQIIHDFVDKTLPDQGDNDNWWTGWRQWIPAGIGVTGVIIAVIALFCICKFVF

[4] = biological target: T4, SUDV GP on pseudotyped lentiviral vector (Sudan virus (SUDV), UniProt Q7T9D9 33-676); test: cell-based or functional assay
T4 sequence: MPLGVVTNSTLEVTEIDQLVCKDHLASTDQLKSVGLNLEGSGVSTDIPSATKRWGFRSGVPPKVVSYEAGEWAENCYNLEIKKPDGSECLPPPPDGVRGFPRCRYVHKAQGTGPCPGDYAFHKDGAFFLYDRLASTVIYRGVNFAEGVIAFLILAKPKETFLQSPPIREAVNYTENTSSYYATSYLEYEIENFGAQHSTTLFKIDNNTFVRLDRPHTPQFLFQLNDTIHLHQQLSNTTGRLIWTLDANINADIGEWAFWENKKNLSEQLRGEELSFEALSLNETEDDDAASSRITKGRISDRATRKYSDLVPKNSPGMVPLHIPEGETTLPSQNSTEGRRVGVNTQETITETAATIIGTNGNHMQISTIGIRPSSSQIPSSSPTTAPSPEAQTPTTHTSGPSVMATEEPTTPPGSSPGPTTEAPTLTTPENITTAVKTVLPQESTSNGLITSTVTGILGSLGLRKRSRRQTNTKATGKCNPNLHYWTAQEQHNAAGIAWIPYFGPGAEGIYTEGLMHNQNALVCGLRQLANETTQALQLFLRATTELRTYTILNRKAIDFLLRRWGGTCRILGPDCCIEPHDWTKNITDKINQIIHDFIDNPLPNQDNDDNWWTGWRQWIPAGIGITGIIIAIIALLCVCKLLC

[5] = biological target: T2, full-length Sudan GP (GPFL); test: BLI, Fab, pH 5.3
[6] = biological target: T1, full-length Zaire GP (GPFL); test: BLI, Fab, pH 7.4
[7] = biological target: T2, full-length Sudan GP (GPFL); test: BLI, Fab, pH 7.4

Binder | EC50 [1] | EC50 [2] | IC50, microneutralization of GP-pseudotyped lentiviral vector on HEK293 cells [3] | IC50, microneutralization of GP-pseudotyped lentiviral vector on HEK293 cells [4] | Kd [5] | koff [5] | kon [5] | Kd [6] | koff [6] | kon [6] | Kd [7] | koff [7] | kon [7]
antibody 191L (antibody, V domains shown) VH: EVQLVESGGGLVQPGGSLRLSCAASGFTFSSYGIHWVRQAPGKGLEWVAIISYDGNKKFHADSVKDRFTISRDNSKNMLYLQMNNLKLEDTAVYYCARAYDSGYFAGSVFYYWGQGVLVTVSS VL: EVVFTQPHSVSGSPGQTVTISCTRSSGSIDSEYVQWYQQRPGNAPTTVIYKDNQRPSGVPDRFSGSIDSSSNSASLAISGLKSEDEADYYCQSADGNYHPVFGEGTRLTVL | 0.01 µg/mL | 0.02 µg/mL | > 10 µg/mL | > 10 µg/mL |  |  |  |  |  |  |  |  | 
antibody 206L (antibody, V domains shown) VH: EVQLVESGGGVVQPGGSLRLSCAASGFTFDDYAMHWVRQAPGKGLEWVSGISWSGGNTYYADSVKGRFTVSRENAKNSLYLQMNRLRAEDTAFYNCARTSQGGAVVFSAPNYWGQGVLVTVSS VL: QSVLTQAPSVSGAPGQRVTISCTGSSSNIGGYYVQWYQQLPGRAPKLLIYENNKRPSGVSDRFSGSRSASSASLTITGLQSEDEADYYCQSYDSRLNGYIFGGGTRLTVL | 0.001 µg/mL | 2.58 µg/mL | > 10 µg/mL | > 10 µg/mL |  |  |  |  |  |  |  |  | 
antibody 231L (antibody, V domains shown) VH: EVQLVESGGGLVQPGGSLRLSCAASAFTFDDYAMHWVRQAPGKGLEWVSGITWSGLSTYYADSVKGRFTISRDNAKNSLYLQMNSLRVEDTALYYCAKSGNNSPFSGLDSWGQGAVVTVSS VL: QSVLTQPPSVSGAPGQRVTVSCTGSSSNIGAGSYVQWYQQLPGTAPKLLIYENNKRPSGVSDRFSGSKSGTSASLTITGLQSEDEADYYCQSYDSSLNAYIFGAGTRLTVL | 0.002 µg/mL | 0.4 µg/mL | > 10 µg/mL | > 10 µg/mL |  |  |  |  |  |  |  |  | 
antibody 232L (antibody, V domains shown) VH: KSQLVESGGGLVQPGGSLRLSCAASGFTFDAYAMHWVRQAPGEGLEWVTAISWSGSSTYYADSVKGRFTFSRDNAKNSLYLEMNSLRADDTAFYYCVKGGVYNWFDVWGPGVLVTVSS VL: QSVLTQPPSVSGAPGQRVTISCTGSRSNIGGYYVSWYQQFPGTTPKLLIYQDNKRPSGVSDRFSGSKSGTSASLTITGLQTEDEADYYCLSYDSSLNGWVFGGGTRLTVL | 0.08 µg/mL | 0.09 µg/mL | > 10 µg/mL | > 10 µg/mL |  |  |  |  |  |  |  |  | 
antibody 310L (antibody, V domains shown) VH: EMQLVESGGGLVQPGGSLRLSCAASGFTFDAYAMHWVRQRPGKGLEWISGIIWSGRTTYYADSVKGRFTFSRDNSKNSLYLEMNSLKPEDTALYYCAKDSWNYGVYNSLDVWGRGILVTVSS VL: QSVLTQPPSVSGAPGQRVTISCTGSSSNVGPHYVSWYQHLPGTTPKLLIFQDNKRPSGVSDRFSGSKSASSASLTITGLQTEDEADYYCLSYDSSLNVYIFGSGTRLTVL | 0.01 µg/mL | 0.04 µg/mL | > 10 µg/mL | > 10 µg/mL |  |  |  |  |  |  |  |  | 
antibody 315L (antibody, V domains shown) VH: QVQLQESGPGLVKPSETLSLTCTVSGGSITGNYWTWVRQPPGKGLQYIGRFDAGGKTYYNPPLKSRVSILGDKSKNQVSLNLTSVTVADTGVYYCAREQWGQLLSGSFDVWGRGVLVTVSS VL: SYELTQPPSVSVSPGQTARITCSGDALPDYYAHWYQQKSGQAPMLVIYKDTERPSGIPERFSGSSSGTTVSLTISGVQAEDEADYYCQSGDSSGNHWVFGGGTRLTVL | 1.8 µg/mL | 0.01 µg/mL |  | > 10 µg/mL |  |  |  |  |  |  |  |  | 
Fab generated from 316L (Fab, V domains shown, also called 316L Fab) VH: EERLVESGGGLVQPGGSLRLSCAASGFTFGDYAMHWVRQVPGKSLEWLSGISWSGYTTYSADSVKGRFTISRDNAKNSLYLQMNRLRPEDTGLYYCVTLIGAIGIKDSLDVWGRGVLVTVSS VL: QSVLTQPPSVSGAPGQRVTVSCSGSSSNIGAGNYVQWYQQLPGTAPKVLIYQTEKRPSGTSDRFSGSKSDTSASLTINGLQSEDEADYYCQVYDSNLNGWVFGGGTRLTVL |  |  |  |  | 1.26 nM | 0.000139 s⁻¹ | 110000 M⁻¹ s⁻¹ | 38.1 nM | 0.00263 s⁻¹ | 69000 M⁻¹ s⁻¹ | 1.16 nM | 0.000157 s⁻¹ | 135000 M⁻¹ s⁻¹
Fab generated from 380L (Fab, V domains shown, also called 380L Fab) VH: EVQLVESGGGLVQPGGSLTLSCAASGFTFGDYVMHWVRQVPGRGLEWLSAVSWSGYTTYSADSVKGRFTISRDNAKNSLYLQMSRLGTADTGLYYCVTLIGAIGIRDSFDAWGRGVLVTVSS VL: QSVLTQPPSMSGAPGQRVTVSCTGSSSNIGAGNYVQWYQQLPGTAPKVLIYQTDKRPSGISDRFSGSKSGTSASLTISGLQSEDEADYYCQVYDSSLNGWVFGGGTRLTVL |  |  |  |  | 3.87 nM | 0.000326 s⁻¹ | 84200 M⁻¹ s⁻¹ | 19.8 nM | 0.00148 s⁻¹ | 63000 M⁻¹ s⁻¹ | 2.85 nM | 0.00029 s⁻¹ | 101000 M⁻¹ s⁻¹
antibody 314L (antibody, V domains shown) VH: EERLVESGGGLVQPGGSLRLSCAASGFTFGDYAMHWVRQVPGKSLEWLSGISWSGYTTYSADSVKGRFTISRDNAKNSLYLQMNRLRPEDTGLYYCVTLIGAIGIKDSLDVWGRGVLVTVSS VL: EVVFTQPHSVSGSPGQMVTISCTRSSGTIDNSYVYWHQQRPGSAPTTVIYNDDQRPSGVPDRFSGSIDSSSNSASLTISGLKSEDEADYYCQSYDSSGWVFGGGTRLTVL | 1.73 µg/mL | 1.05 µg/mL |  |  |  |  |  |  |  |  |  |  | 
